Measurements from patent US20220235344A1, “TRYPSIN VARIANTS WITH IMPROVED ENZYMATIC PROPERTIES” (BIOPHARMA TRANSLATIONSINSTITUT DESSAU FORSCHUNGS GMBH, priority 2018, published 2022).
Where a chain is given by its changes, count along the chain named. Names may count otherwise.

T1: H-RAHAK(DNP)-OH
T1 chain: RAHAK

T2: H-RHAK-OH
T2 chain: RHAK

B1: Trypsiligase II variant A2C8 (protein)
chain: IVGGYTCQENSVPYQVSLNSGHFFCGGSLINDQWVVSAAHCHESRIQVRLGEHNINVLEGNEQFVNAAKIIKHPNFDEDTFNNDIMLIKLSSPVKLNARVATVALPSSCAPAGTQCLISGWGETLSSGVNYPDLLQCLDAPLLPQADCEASYPGKITDNMVCVGFLEGGKKVCAGDSGGPVVCNGELQGIVGWGYQCTLPDNPGVYTKVCNYVDWIQDTIAAN
B2: Trypsiligase I (trypsin variant K60E/N143H/E151H/D189K) (protein)
chain: IVGGYTCQENSVPYQVSLNSGYHFCGGSLINDQWVVSAAHCYESRIQVRLGEHNINVLEGNEQFVNAAKIIKHPNFDRKTLNNDIMLIKLSSPVKLNARVATVALPSSCAPAGTQCLISGWGHTLSSGVNHPDLLQCLDAPLLPQADCEASYPGKITDNMVCVGFLEGGKKSCQGDSGGPVVCNGELQGIVSWGYGCALPDNPGVYTKVCNYVDWIQDTIAAN
B3: wild-type trypsin: mature anionic rat trypsin II from Rattus norvegicus, SEQ ID NO: 1 (protein)
chain: B2 chain with E43K, H123N, H131E, K171D
modifications: Rat anionic trypsin II
B4: Trypsiligase I variant 2G10 (protein)
chain: B2 chain with H23P, A38S, K79D, L81F, Q174E
B5: Trypsiligase I variant 1C11 (protein)
chain: B2 chain with R78V, L81F, S192G, G196S, A198G

Columns and labels:
H-RAHAK(DNP)-OH = molecular target: T1, H-RAHAK(DNP)-OH
H-RHAK-OH = molecular target: T2, H-RHAK-OH
[1] = system: Bz PGGXaaXaaXaaHAG-OH / H-XaaXaaXaaAK(DNP)-OH (recognition sequences YRRH, YMKH, RMKH); experiment: Time course of transamidation by A2C8_H39Y/H59Y/E60K/K189D and wild-type trypsin (FIG. 5); type: biochemical; conditions: recognition sequences YRRH, YMKH and RMKH; 10 μM variant or 2.5 nM anionic rat trypsin II
Procedure: FIG. 5: Time course of the product formation for a transamidation reaction catalyzed by the variant A2C8_H39Y/H59Y/E60K/K189D as well as the wild-type Trypsin in correlation to various peptide substrates. Reaction conditions: 100 μM acyl donor (Bz PGGXaaXaaXaaHAG-OH), 200 μM acyl acceptor (H-XaaXaaXaaAK(DNP)-OH), 10 μM trypsin variant A2C8_H39Y/H59Y/E60K/K189D or 2.5 nM anionic rat trypsin II, 100 mM HEPES/NaOH pH 7.8, 0.1 mM ZnCl2, 100 mM NaCl, 10 mM CaCl2, T=30° C. UPLC analysis: Waters Acquity Ultra Performance LC, C18-column, gradient 5-60% acetonitrile, 5 min, detection at 360 nm.
The three substrates with the highest apparent turnover rate for the aminolysis reaction were then used for investigating the synthesis behavior of variant A2C8_H39Y/H59Y/E60K/K189D. In FIG. 5 the time course of product formation for a transamidation reaction catalyzed by variant A2C8_H39Y/H59Y/E60K/K189D with various peptide substrates is illustrated.

[2] = system: Bz-AAYRHAAG-OH (acyl donor) / H-RHAK-OH (acyl acceptor); experiment: Model transamidation reaction, Trypsiligase I and improved variants (Example 1); type: biochemical; conditions: for kcat, HL^app (mkat/mol) / kcat,AL^app, apparent turnover rate for aminolysis (head is formula image MATH:00001) / product yield (%): 250 μM Bz-AAYRHAAG-OH, 500 μM H-RHAK-OH, 0.1 mM ZnCl2, pH 7.8, 30° C.; for product yield (%): 5-10 μM trypsin variant; for kcat, AL^app/kcat, HL^app: 250 μM acyl donor, 500 μM acyl acceptor, 0.1 mM ZnCl2; for Km: constant acyl donor concentration, varying acyl acceptor concentrations
Procedure: Peptide and reaction analytics were performed using a Waters ACQUITY UPLC System equipped with an RP-C18 column (ACQUITY UPLC BEH 130, C18, 1.7 μm, 2.1×100 mm) at flow rates of 0.5 ml/min. The used mobile phases are: water with 0.05% TFA (A) and acetonitrile with 0.05% TFA (B), respectively. For analysis two methods were applied: Method I: linear gradient of 5-40% B in 5 min, detection at 254 nm.
Quantities of product and educt were calculated from the integrated peak areas.
The measurements of the product yield and the apparent tumover rates for aminolysis (kcat,AL^app) and hydrolysis (kcat,HL^app) were performed by a model transamidation reaction with the following conditions: 250 μM Bz-[…]-OH (acyl donor), 500 μM H-RHAK-OH (acyl acceptor), 5-10 μM trypsin variant, 100 mM HEPES/NaOH pH 7.8, 0.1 mM ZnCl2, 100 mM NaCl, 10 mM CaCl2, T=30° C. KM values for the acyl acceptor were determined by the measurements of apparent turnover rates for aminolysis at constant acyl donor concentration and varying acyl acceptor concentrations.

[3] = system: Bz-AAYRHAAG-OH (acyl donor) / H-RHAK-OH (acyl acceptor); experiment: Model transamidation reaction at low substrate concentration, Trypsiligase I, 2G10, 1C11, hybrid (Example 2); type: biochemical; conditions: for product yield (%): 15 μM Bz-AAYRHAAG-OH, 30 μM H-RHAK-OH, 0.5-2.1 μM trypsin variant, 0.1 mM ZnCl2, pH 7.8, 30° C.; for kcat, AL^app (mkat/mol) / kcat, AL^app/kcat, HL^app / kcat, HL^app (mkat/mol): 15 μM acyl donor, 30 μM acyl acceptor, 0.1 mM ZnCl2
Procedure: FIG. 1: Time course of product formation for a transamidation reaction catalyzed by Trypsiligase I as well as the improved variants 2G10, 1C11 and the hybrid variant. Reaction conditions: 15 μM Bz-[…]-OH (acyl donor), 30 μM H-RHAK-OH (acyl acceptor), 0.5-2.1 μM trypsin variant, 100 mM HEPES/NaOH pH 7.8, 0.1 mM ZnCl2, 100 mM NaCl, 10 mM CaCl2, T=30° C. UPLC analysis: Waters Acquity Ultra Performance LC, C18-column, gradient 5-40% acetonitrile, 4 min, detection at 254 nm.
The measurements of the product yield and the apparent tumover rates for aminolysis (kcat,AL^app) and hydrolysis (kcat,HL^app) were performed by a model transamidation reaction with the following conditions: 15 μM Bz-[…]-OH (acyl donor), 30 μM H-RHAK-OH (acyl acceptor), 0.5-2.1 μM trypsin variant, 100 mM HEPES/NaOH pH 7.8, 0.1 mM ZnCl2, 100 mM NaCl, 10 mM CaCl2, T=30° C.

Row | Molecule | KM, acyl acceptor (µM); zinc ions (100 µM): no; transamidation with 250 µM Bz-PGGYRAHAG-OH as acyl donor (H-RAHAK(DNP)-OH) [µM] | fold improvement of KM of the nucleophilic peptide against Trypsiligase II in the absence of zinc ions (H-RAHAK(DNP)-OH) | fold improvement of KM of the nucleophilic peptide against Trypsiligase II in the presence of zinc ions (H-RAHAK(DNP)-OH) | KM, acyl acceptor (µM); transamidation with Bz-AAYRHAAG-OH as acyl donor, 0.1 mM ZnCl2 (H-RHAK-OH) [µM] | product formation [1] | enzyme kinetic analyses (worded result) (H-RHAK-OH) | affinity for the nucleophilic substrate compared to Trypsiligase I [2] | kcat, HL^app (mkat/mol) [2] [mkat/mol] | kcat,AL^app, apparent turnover rate for aminolysis (head is formula image MATH:00001) [2] | product yield (%) [2] [%] | kcat, AL^app/kcat, HL^app [2] | Km [2] [µM] | increase for the ratio of aminolysis to hydrolysis activity (factor) ([2]; versus Trypsiligase I) | product yield (%) [3] [%] | kcat, AL^app (mkat/mol) [3] [mkat/mol] | kcat, AL^app/kcat, HL^app [3] | kcat, HL^app (mkat/mol) [3] [mkat/mol] | aminolysis activity lowered by factor ([2]; versus Trypsiligase I)
1 | B1 | 17.6 | by a factor of 8 and 92 in the presence or absence of zinc ions, respectively | by a factor of 8 and 92 in the presence or absence of zinc ions, respectively |  |  |  |  |  |  |  |  |  |  |  |  |  |  | 
2 | B2 |  |  |  | 222 |  |  |  |  |  |  |  |  |  |  |  |  |  | 
3 | B3 |  |  |  |  | Nearly no product formation |  |  |  |  |  |  |  |  |  |  |  |  | 
4 | B4 |  |  |  | 23 |  | shows a strongly increased affinity for the nucleophilic RH substrate compared to the initial enzyme Trypsiligase I | strongly increased affinity for the nucleophilic RH substrate | 2.5 | 65.1 | 59.3 | 26.0 | 23 | 6 | 39.6 | 16.39 | 3.3 | 5.03 | 
5 | B5 |  |  |  | > 5000 |  | An improved affinity for the nucleophile could not be shown for this variant. | An improved affinity for the nucleophile could not be shown | 0.3 | 16.0 | 60.9 | 57.0 | > 5000 | 13 | 53.9 | 6.24 | 6.4 | 0.97 | 3
